Test results published in patent publication US20190144556A1 (published 2019).

Key:
[1] = molecular target: T1, peptide fragment defined by residues 130-149 of SEQ ID NO: 7 within human TNFR2 (KQEGCRLCAPLRKCRPGFGV) (human); test: peptide binding; assay not given
T1 peptide: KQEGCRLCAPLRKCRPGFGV

[2] = molecular target: T2, linear peptide containing amino acids 112-139 of SEQ ID NO: 7 within human TNFR2 (human); test: ELISA, linear peptide coated at 1 µg/well, antibody 0.1 µg/well
T2 construct: Linear peptide purchased from GenScript and coated on the plate
T2 peptide: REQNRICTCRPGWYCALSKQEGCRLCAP
Description: (§1) ELISA was also used to determine linear epitopes present on the extracellular surface of TNFR2. Linear peptides corresponding to various regions within the TNFR2 primary sequence were purchased from GenScript (Piscataway, N.J.), diluted in coating buffer and placed on Immulon 4HBX Flat Bottom Microtiter Plates (Thermo Scientific) at a concentration of 1 μg/well. Primary TNFR2 antagonistic antibodies (0.1 μg/well) were incubated with substrates. Secondary antibodies against rodent IgG were used to detect the primary antibodies. Absorbance was measured using the SPECTRAMAX® 190 Absorbance Plate Reader and analyzed with SoftMax Pro 6.3 (Molecular Devices).

[3] = molecular target: T3, linear peptide containing amino acids 128-155 of SEQ ID NO: 7 within human TNFR2 (human); test: as above
T3 construct: Linear peptide purchased from GenScript and coated on the plate
T3 peptide: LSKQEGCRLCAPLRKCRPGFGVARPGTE
Description: as §1

recombinant human TNFR2 = molecular target: T4, recombinant human TNFR2 (human, UniProt P20333 23-257, limits assumed); test: SPR (BIACORE 3000), biotinylated antibody captured on streptavidin, recombinant human TNFR2 injected
T4 construct: also called tumor necrosis factor receptor 2; full-length target protein
T4 sequence: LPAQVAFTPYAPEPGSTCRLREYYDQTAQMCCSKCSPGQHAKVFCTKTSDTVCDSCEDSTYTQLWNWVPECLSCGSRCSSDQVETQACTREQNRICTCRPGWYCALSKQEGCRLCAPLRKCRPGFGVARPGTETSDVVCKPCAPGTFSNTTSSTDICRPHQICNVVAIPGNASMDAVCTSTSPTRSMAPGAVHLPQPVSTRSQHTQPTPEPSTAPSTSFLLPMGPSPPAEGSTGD
Description: The affinities of antagonistic TNFR2 antibodies for recombinant human TNFR2 were measured using BIACORE™ Analysis Services (Precision Antibody). Briefly, the antibody was biotinylated at a 5:1 stoichiometric ratio using biotinyl-LC-LC-[…] (Thermo-Fisher) in PBS. Excess biotinylation reagent was removed by centrifugation chromatography and the biotinylated antibody was captured on 3000 RU of streptavidin surface to a level of 100 RU. […] Analysis of the kinetics of antigen binding was performed at a flow of 60 μL/min with 2 min injections. Antibodies were injected at a concentration of 1 mg/ml to the final capture of 100 RU. The instrument used was BIACORE™ 3000 with the BioCap chip (GE Healthcare). Double reference method was used for analysis. Reference channel contained the identical level of streptavidin.

fold greater affinity than for the peptide fragment defined by residues 48-67 of SEQ ID NO: 7 (…, SEQ ID NO: 18) [1]: 40 fold
binding result [2]: binds
binding result [3]: binds
Kd (recombinant human TNFR2): ~0.0444 nM
koff (recombinant human TNFR2): 0.000221 s⁻¹
kon (recombinant human TNFR2): 4.98e+06 M⁻¹ s⁻¹
B1: antagonistic TNFR2 antibody TNFRAB1 (antibody, V domains shown)
VH: EVQLQESGGGLVKPGGSLKLSCAASGFTFSSYVMSWVRQTPEKRLEWVATISSGGSYTYYPDSVKGRFTISRDNAKNTLYLQMSSLRSEDTAMYYCARQRVDGYSSYWYFDVWGAGTAVTVSS
VL: DIVLTQSPAIMSASPGEKVTITCSASSSVYYMYWFQQKPGTSPKLWIYSTSNLASGVPVRFSGSGSGTSYSLTISRMEAEDAATYYCQQRRNYPYTFGGGTKLEIKR
notes: Murine monoclonal antibody, full-length IgG; For SPR the antibody was biotinylated and captured on streptavidin; also called TNFR2 antagonist 1
